These results are taken from patent US20220048996A1 (F STAR BETA, published 2022).

Assay [1] deals with T1, human CD137 expressed on DO11.10 cells (DO11.10-hCD137) (human, UniProt Q07011 24-255).
T1 construct: also called CD137 on human T cells
The assay is described as follows: flow cytometry on DO11.10 cells expressing the target. The procedure:
(§1) 50 μl of the antibody dilutions were added to the wells containing cells (final volume 100 μl) and incubated at 4° C. for 1 hour. […] The plates were washed and resuspended in 100 μl of PBS containing DAPI (Biotium, cat no 40043) at 1 μg/ml. The plates were analysed using a Canto II flow cytometer (BD Bioscience) and the data analysed using FlowJo. Dead cells were identified by their higher fluorescence on the UV (405 nm/450/50) channel and excluded from analysis. […] The GMFI data was fit using log (agonist) vs response (three parameters) in Graph Pad Prism Software to generate EC₅₀ values.

Assay [2] deals with T2, cynomolgus CD137 expressed on DO11.10 cells (DO11.10-cCD137) (cynomolgus monkey, UniProt Q07011 24-255 (human entry)).
T2 chain: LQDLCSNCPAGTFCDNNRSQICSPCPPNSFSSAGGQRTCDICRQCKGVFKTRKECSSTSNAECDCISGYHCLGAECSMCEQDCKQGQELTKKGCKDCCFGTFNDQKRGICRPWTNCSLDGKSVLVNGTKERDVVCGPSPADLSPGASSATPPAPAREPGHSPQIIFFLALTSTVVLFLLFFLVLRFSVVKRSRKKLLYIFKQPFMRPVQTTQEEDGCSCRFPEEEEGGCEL
The assay is described as above. The procedure: as §1

B1: FS20-22-49AA/4420 (antibody, human IgG1, kappa, L234A L235A)
heavy: EVKLDETGGGLVQPGRPMKLSCVASGFTFSDYWMNWVRQSPEKGLEWVAQIRNKPYNYETYYSDSVKGRFTISRDDSKSSVYLQMNNLRVEDMGIYYCTGSYYGMDYWGQGTSVTVSSASTKGPSVFPLAPSSKSTSGGTAALGCLVKDYFPEPVTVSWNSGALTSGVHTFPAVLQSSGLYSLSSVVTVPSSSLGTQTYICNVNHKPSNTKVDKKVEPKSCDKTHTCPPCPAPEAAGGPSVFLFPPKPKDTLMISRTPEVTCVVVDVSHEDPEVKFNWYVDGVEVHNAKTKPREEQYNSTYRVVSVLTVLHQDWLNGKEYKCKVSNKALPAPIEKTISKAKGQPREPQVYTLPPSRDEYWDQEVSLTCLVKGFYPSDIAVEWESNGDEQFAYKTTPPVLDSDGSFFLYSKLTVDQYRWNPADYFSCSVMHEALHNHYTQKSLSLSPG
light: DVVMTQTPLSLPVSLGDQASISCRSSQSLVHSNGNTYLRWYLQKPGQSPKVLIYKVSNRFSGVPDRFSGSGSGTDFTLKISRVEAEDLGVYFCSQSTHVPWTFGGGTKLEIKRTVAAPSVFIFPPSDEQLKSGTASVVCLLNNFYPREAKVQWKVDNALQSGNSQESVTEQDSKDSTYSLSSTLTLSKADYEKHKVYACEVTHQGLSSPVTKSFNRGEC
notes: also called OX40/FITC mock mAb^2; FS20-22-49 Fcab in mock (4420 LALA) mAb^2 format
Turning to B1, the binding result in assay [1] and in assay [2] was “no binding” each time.
